The results in this text go back to paper PMC9974451, “Transportin 1 is a major nuclear import receptor of the nitric oxide synthase interacting protein” (The Journal of Biological Chemistry, 2023).

A word on the Kd: it is the constant that tells how readily two partners part at equilibrium. A low value points to tighter binding.

Common to all, as to conditions: both partners purified
Test [1] has as its target RanQ69L (aa 1-180) loaded with GTP (UniProt P62826 1-180, Q69L). In words: pull-down; GST-M9 or GST-NOSIP immobilised on glutathione Sepharose beads, MBP-tagged TNPO1 FL, ΔN or ΔC, with or without RanQ69L(1-180)-GTP; Coomassie.
Test [2] addresses T1, His-S-importin β (full length) (UniProt Q14974 1-876).
T1 construct: called full-length importin β (FL) in the fragment experiment; the ΔN fragment ends at aa 876; also called His-importin β; S-His-importin β
In words: pull-down; 100 pmol His-NOSIP-MBP (WT or K78A/K79A) or MBP immobilised on amylose beads, 100 pmol purified His-tagged NTR, with or without 300 pmol RanQ69L(1-180)-GTP, 3 h, 4 °C, TPB; SDS-PAGE, Coomassie.

Test [3] addresses T1, His-S-importin β (full length). Kind of test: pull-down; 100 pmol GST-IBB, GST-NOSIP or GST immobilised on glutathione Sepharose beads, 100 pmol His-S-tagged importin β FL, ΔN or ΔC; Western blot with anti-importin β. For orientation: A western blot detects proteins with antibodies after separation by electrophoresis.
Test [4] has as its target T2, importin β ΔC (aa 1-396), His-S-tagged (UniProt Q14974 1-396).
T2 construct: also called Imp β ΔC; N-terminal (ΔC) fragment
The test is described as above.

The target in test [5] is T1, His-S-importin β (full length). Kind of test: pull-down; competition: 100 pmol His-S-importin β immobilised on S-protein beads, 100 pmol His-NOSIP with 0, 100, 300, 1000 pmol His-importin α, or the other way around; Coomassie.
In test [6] the target is T3, His-TNPO1 (transportin 1) (UniProt Q92973-2 1-890).
T3 construct: transportin 1; The length 890 is printed for the MBP construct only; also called His-transportin 1
T3 sequence (looked up): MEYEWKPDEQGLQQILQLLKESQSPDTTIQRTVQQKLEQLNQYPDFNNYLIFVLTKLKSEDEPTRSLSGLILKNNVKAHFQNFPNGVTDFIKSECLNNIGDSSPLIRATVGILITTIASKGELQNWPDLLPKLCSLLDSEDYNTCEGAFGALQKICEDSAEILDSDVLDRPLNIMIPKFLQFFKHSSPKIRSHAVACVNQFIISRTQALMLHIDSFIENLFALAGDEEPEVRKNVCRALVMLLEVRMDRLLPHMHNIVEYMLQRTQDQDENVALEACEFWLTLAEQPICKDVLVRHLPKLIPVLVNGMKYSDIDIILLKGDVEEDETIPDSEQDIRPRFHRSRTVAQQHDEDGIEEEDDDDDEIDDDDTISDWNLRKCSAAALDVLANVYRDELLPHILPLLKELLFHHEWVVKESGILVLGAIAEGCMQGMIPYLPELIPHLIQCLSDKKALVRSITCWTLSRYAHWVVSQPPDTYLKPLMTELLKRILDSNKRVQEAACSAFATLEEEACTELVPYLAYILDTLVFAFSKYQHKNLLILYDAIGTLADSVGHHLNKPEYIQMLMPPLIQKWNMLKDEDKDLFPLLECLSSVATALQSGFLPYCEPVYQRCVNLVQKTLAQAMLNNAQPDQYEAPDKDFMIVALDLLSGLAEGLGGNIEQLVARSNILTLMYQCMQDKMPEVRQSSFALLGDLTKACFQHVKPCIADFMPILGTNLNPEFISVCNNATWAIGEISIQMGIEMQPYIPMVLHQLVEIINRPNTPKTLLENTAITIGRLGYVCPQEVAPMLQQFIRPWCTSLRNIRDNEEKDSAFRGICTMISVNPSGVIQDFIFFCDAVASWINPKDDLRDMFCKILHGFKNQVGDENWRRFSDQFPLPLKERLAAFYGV
In words: differential scanning fluorimetry; His-tagged NTR at 0.5 μM in TPB with 2 mM DTT, His-NOSIP or Ubc9 titrated in 18 steps from 0.05 to 5 μM, 5x SYPRO Orange, 25 to 90 °C; Tm plotted against concentration, exponential fit. On the technique in general: DSF heats the sample and reads unfolding from a dye or from intrinsic fluorescence.

Test [7] deals with T4, His-importin 13 (UniProt O94829 1-963).
T4 construct: importin 13; also called Imp 13; His-Imp13; source: E. coli JM109, purified (Ni-NTA agarose, size exclusion chromatography)
T4 sequence (looked up): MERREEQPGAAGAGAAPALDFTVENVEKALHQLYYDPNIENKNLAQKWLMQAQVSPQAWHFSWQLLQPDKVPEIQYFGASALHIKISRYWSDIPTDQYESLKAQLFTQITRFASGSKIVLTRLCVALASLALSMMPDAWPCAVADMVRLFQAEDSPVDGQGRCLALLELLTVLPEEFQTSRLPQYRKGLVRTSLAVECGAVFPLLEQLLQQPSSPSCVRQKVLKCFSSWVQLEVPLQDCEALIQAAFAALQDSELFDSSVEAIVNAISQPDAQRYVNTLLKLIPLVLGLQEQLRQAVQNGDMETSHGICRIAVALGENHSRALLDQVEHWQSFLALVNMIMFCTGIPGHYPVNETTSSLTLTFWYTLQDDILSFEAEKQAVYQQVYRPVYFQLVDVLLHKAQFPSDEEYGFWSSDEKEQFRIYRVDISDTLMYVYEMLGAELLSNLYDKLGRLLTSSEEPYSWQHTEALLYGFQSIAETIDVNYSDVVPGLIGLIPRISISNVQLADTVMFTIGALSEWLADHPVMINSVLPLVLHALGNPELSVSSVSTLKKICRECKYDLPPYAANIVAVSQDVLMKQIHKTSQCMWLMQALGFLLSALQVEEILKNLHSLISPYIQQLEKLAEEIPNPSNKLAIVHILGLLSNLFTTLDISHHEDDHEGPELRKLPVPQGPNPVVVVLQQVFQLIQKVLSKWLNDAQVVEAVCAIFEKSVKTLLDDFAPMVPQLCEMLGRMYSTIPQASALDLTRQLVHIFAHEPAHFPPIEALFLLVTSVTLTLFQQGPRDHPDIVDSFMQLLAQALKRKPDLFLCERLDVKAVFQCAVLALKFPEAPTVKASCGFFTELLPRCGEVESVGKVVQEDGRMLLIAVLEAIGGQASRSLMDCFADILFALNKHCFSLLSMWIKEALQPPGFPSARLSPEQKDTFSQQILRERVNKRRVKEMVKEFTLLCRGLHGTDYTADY
Described as above.

T1 sequence (Q14974 whole entry, the tested form may be a part): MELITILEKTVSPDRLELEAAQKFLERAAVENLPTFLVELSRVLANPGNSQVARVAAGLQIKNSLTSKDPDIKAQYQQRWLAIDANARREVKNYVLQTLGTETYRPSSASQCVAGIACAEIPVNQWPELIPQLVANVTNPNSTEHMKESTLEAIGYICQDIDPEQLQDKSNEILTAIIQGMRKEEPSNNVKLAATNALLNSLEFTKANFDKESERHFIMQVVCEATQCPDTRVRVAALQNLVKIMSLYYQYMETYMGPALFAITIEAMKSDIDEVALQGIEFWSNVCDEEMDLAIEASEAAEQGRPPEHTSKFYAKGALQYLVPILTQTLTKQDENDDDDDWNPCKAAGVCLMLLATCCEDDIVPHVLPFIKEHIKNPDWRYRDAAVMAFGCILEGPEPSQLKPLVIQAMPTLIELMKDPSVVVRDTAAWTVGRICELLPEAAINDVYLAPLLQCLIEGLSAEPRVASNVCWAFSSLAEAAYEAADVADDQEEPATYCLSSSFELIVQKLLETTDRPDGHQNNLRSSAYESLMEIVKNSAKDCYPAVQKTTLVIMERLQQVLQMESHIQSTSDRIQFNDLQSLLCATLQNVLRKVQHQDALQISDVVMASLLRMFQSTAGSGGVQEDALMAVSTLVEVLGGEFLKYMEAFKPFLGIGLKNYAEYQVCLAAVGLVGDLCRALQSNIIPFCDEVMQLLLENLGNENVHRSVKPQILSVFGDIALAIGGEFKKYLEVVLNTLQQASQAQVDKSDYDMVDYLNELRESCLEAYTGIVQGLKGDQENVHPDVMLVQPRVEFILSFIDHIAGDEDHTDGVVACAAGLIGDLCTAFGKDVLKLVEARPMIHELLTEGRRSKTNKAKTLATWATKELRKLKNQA
T2 sequence (Q14974 1-396, stated change not applied): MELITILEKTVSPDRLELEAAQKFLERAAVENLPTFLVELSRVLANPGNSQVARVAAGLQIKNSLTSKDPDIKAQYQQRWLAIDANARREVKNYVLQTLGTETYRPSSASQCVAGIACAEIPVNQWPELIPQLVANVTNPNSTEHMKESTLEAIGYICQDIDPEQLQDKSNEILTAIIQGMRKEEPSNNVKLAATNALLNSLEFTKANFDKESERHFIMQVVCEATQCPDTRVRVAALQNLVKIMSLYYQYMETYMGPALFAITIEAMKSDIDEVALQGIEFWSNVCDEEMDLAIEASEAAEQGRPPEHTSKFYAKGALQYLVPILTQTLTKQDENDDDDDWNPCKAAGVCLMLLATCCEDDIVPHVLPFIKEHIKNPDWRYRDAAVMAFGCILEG

B1: MBP-TNPO1 FL (aa 1-890) (natural protein)
chain: MEYEWKPDEQGLQQILQLLKESQSPDTTIQRTVQQKLEQLNQYPDFNNYLIFVLTKLKSEDEPTRSLSGLILKNNVKAHFQNFPNGVTDFIKSECLNNIGDSSPLIRATVGILITTIASKGELQNWPDLLPKLCSLLDSEDYNTCEGAFGALQKICEDSAEILDSDVLDRPLNIMIPKFLQFFKHSSPKIRSHAVACVNQFIISRTQALMLHIDSFIENLFALAGDEEPEVRKNVCRALVMLLEVRMDRLLPHMHNIVEYMLQRTQDQDENVALEACEFWLTLAEQPICKDVLVRHLPKLIPVLVNGMKYSDIDIILLKGDVEEDETIPDSEQDIRPRFHRSRTVAQQHDEDGIEEEDDDDDEIDDDDTISDWNLRKCSAAALDVLANVYRDELLPHILPLLKELLFHHEWVVKESGILVLGAIAEGCMQGMIPYLPELIPHLIQCLSDKKALVRSITCWTLSRYAHWVVSQPPDTYLKPLMTELLKRILDSNKRVQEAACSAFATLEEEACTELVPYLAYILDTLVFAFSKYQHKNLLILYDAIGTLADSVGHHLNKPEYIQMLMPPLIQKWNMLKDEDKDLFPLLECLSSVATALQSGFLPYCEPVYQRCVNLVQKTLAQAMLNNAQPDQYEAPDKDFMIVALDLLSGLAEGLGGNIEQLVARSNILTLMYQCMQDKMPEVRQSSFALLGDLTKACFQHVKPCIADFMPILGTNLNPEFISVCNNATWAIGEISIQMGIEMQPYIPMVLHQLVEIINRPNTPKTLLENTAITIGRLGYVCPQEVAPMLQQFIRPWCTSLRNIRDNEEKDSAFRGICTMISVNPSGVIQDFIFFCDAVASWINPKDDLRDMFCKILHGFKNQVGDENWRRFSDQFPLPLKERLAAFYGV
notes: transportin 1, full length printed as aa 1-890 (890 residues); also called full-length TNPO1; source: E. coli BL21DE3, purified (amylose resin, size exclusion chromatography)
For the molecule B1, the binding result in test [1] is “binds”.

B2: His-NOSIP-MBP (nitric oxide synthase interacting protein) (natural protein, UniProt Q9Y314 1-301, looked up)
chain: MTRHGKNCTAGAVYTYHEKKKDTAASGYGTQNIRLSRDAVKDFDCCCLSLQPCHDPVVTPDGYLYEREAILEYILHQKKEIARQMKAYEKQRGTRREEQKELQRAASQDHVRGFLEKESAIVSRPLNPFTAKALSGTSPDDVQPGPSVGPPSKDKDKVLPSFWIPSLTPEAKATKLEKPSRTVTCPMSGKPLRMSDLTPVHFTPLDSSVDRVGLITRSERYVCAVTRDSLSNATPCAVLRPSGAVVTLECVEKLIRKDMVDPVTGDKLTDRDIIVLQRGGTGFAGSGVKLQAEKSRPVMQA
notes: Name is printed in the order His-NOSIP-MBP; also called wildtype (WT) His-NOSIP-MBP; immobilized NOSIP; source: E. coli JM109, purified (Ni-NTA agarose, amylose resin, dialysis)
In the case of B2, in test [2], the binding result is “binds”.

B3: GST-NOSIP (natural protein, UniProt Q9Y314 1-301, looked up)
chain: MTRHGKNCTAGAVYTYHEKKKDTAASGYGTQNIRLSRDAVKDFDCCCLSLQPCHDPVVTPDGYLYEREAILEYILHQKKEIARQMKAYEKQRGTRREEQKELQRAASQDHVRGFLEKESAIVSRPLNPFTAKALSGTSPDDVQPGPSVGPPSKDKDKVLPSFWIPSLTPEAKATKLEKPSRTVTCPMSGKPLRMSDLTPVHFTPLDSSVDRVGLITRSERYVCAVTRDSLSNATPCAVLRPSGAVVTLECVEKLIRKDMVDPVTGDKLTDRDIIVLQRGGTGFAGSGVKLQAEKSRPVMQA
notes: also called immobilized GST-NOSIP; source: E. coli JM109, purified (glutathione Sepharose, size exclusion chromatography)
For the molecule B3, the binding result in test [3] and in test [4] was “binds” throughout.

B4: His-NOSIP (natural protein, UniProt Q9Y314 1-301, looked up)
chain: MTRHGKNCTAGAVYTYHEKKKDTAASGYGTQNIRLSRDAVKDFDCCCLSLQPCHDPVVTPDGYLYEREAILEYILHQKKEIARQMKAYEKQRGTRREEQKELQRAASQDHVRGFLEKESAIVSRPLNPFTAKALSGTSPDDVQPGPSVGPPSKDKDKVLPSFWIPSLTPEAKATKLEKPSRTVTCPMSGKPLRMSDLTPVHFTPLDSSVDRVGLITRSERYVCAVTRDSLSNATPCAVLRPSGAVVTLECVEKLIRKDMVDPVTGDKLTDRDIIVLQRGGTGFAGSGVKLQAEKSRPVMQA
notes: Lacks the MBP tag; source: E. coli JM109, purified (Ni-NTA agarose, size exclusion chromatography)
B4: the binding result in test [5] was “binds”. Moreover, the Kd in test [6] is 233 ± 60 nM; in test [7], 417 ± 100 nM.
